Source: publication doi:10.1101/2025.10.31.685773 (bioRxiv, 2025)

B1: ADLP (TT_C1082, alanine dehydrogenase-like protein from Thermus thermophilus HB27) with N-terminal Strep-tag (natural protein)
chain: MEFGVPKERSGGEIPERRVPLTPQGVRELVASGHRVYVERGAGEGAGFPDEAYEEAGARLVGREEAFGRPQVVLKVARPTLEEVGLMRKNAVLMAFLHLAVAESPLVEAMAQKGLTAIGYELVGEEGRRPVLKAMSEIAGRMAPQLAGRLLEAPQGPGILLSGLVGIPPADVVVLGAGVLGRAAARAFLGAGASVHLLDRALPPLEEAAREAPGAITALVTQDRLERYVAFADVLVGAVAVPGERTPLLLTRGLLARMRPGSVLLDFSIDQGGVSETSRPGVYQEMGVTHFCLPNVPALVPRTASHALTATLLPYLLRIQEDPLALPGLRQGAYLLFGEKGGHLE

What was measured:
[1] = biological target: TtCoAT (TT_C1083, CoA transferase from Thermus thermophilus HB27) with C-terminal (His)6-tag (Thermus thermophilus HB27) (UniProt Q72IP9); experiment: cryo-EM structure
[2] = biological target: TtCoAT (TT_C1083, CoA transferase from Thermus thermophilus HB27) with C-terminal (His)6-tag (Thermus thermophilus HB27) (UniProt Q72IP9); experiment: cryo-EM structure; remark: listed apart in the source
[3] = biological target: TtCoAT (TT_C1083, CoA transferase from Thermus thermophilus HB27) with C-terminal (His)6-tag (Thermus thermophilus HB27) (UniProt Q72IP9); experiment: SEC
[4] = biological target: the molecule itself; experiment: cryo-EM structure

Molecule | stoichiometry N [1] | stoichiometry N [2] | stoichiometry N [3] | stoichiometry N [4]
TtCoAT (TT_C1083, CoA transferase from Thermus thermophilus HB27) with C-terminal (His)6-tag (from UniProt Q72IP9 1-444) (enzyme) | 2 | 2 | 4 | –
B1 | – | – | – | 6
